Reference: publication PMC4510890

Columns and labels:
[1] = biological target: recombinant rabbit ASI(+)RyR1 (rabbit) (UniProt P11716)
[2] = biological target: recombinant rabbit ASI(+)RyR1 (rabbit) (UniProt P11716); remark: listed apart in the source

Substance: dihydropyridine receptor β1a subunit (from UniProt P19517 1-524) (natural protein)
- relative Po of WT RyR1 channels in lipid bilayers, 10 nM to 100 nM β1a (1.8-fold at 10 nM, 1.9-fold at 100 nM), cis 10 μM Ca2+ and 2 mM ATP [1]: 1.9 fold
- relative Po of ASI(+)RyR1 channels in lipid bilayers, 10 nM β1a (50 nM also tested, number not given), cis 10 μM Ca2+, no ATP [2]: 4.4 fold
- relative Po of ASI(−)RyR1 channels in lipid bilayers, 10 nM β1a (50 nM also tested, number not given), cis 10 μM Ca2+, no ATP [2]: 2.3 fold
